Blank lines part the entries; values can stand above or below the molecule they belong to.
What was measured:
[1] = molecular target: PKA (protein kinase A) catalytic unit, Promega; test: cell-based or functional assay
[2] = test system: T1, Lissamine rhodamine-labeled peptide substrate (Dye-RPKPVE-Norvaline-WRKpSA)
T1 sequence: RPKPVEXWRKSA

[3] = molecular target: T2, Lissamine rhodamine-labeled peptide substrate (Dye-QQQEVYGMMPRDpSA)
T2 chain: QQQEVYGMMPRDSA

IC50 of inhibition of PKA activity (phosphorylation of Lissamine Rhodamine-labeled Kemptide, Fe(III) fluorescence quench assay) [1]: 2.6 nM
Molecule: PKI, a known synthetic peptide inhibitor of PKA

Molecule: Recombinant MMP-3 catalytic subunit (Matrix Metalloproteinase 3), Calbiochem
Km (protease assay, fluorescence quench) [2]: Km was 1.44±0.15 µM

B1: Calpain 1 from human erythrocytes, Calbiochem (protein)
chain 1: SEEIITPVYCTGVSAQVQKQRARELGLGRHENAIKYLGQDYEQLRVRCLQSGTLFRDEAFPPVPQSLGYKDLGPNSSKTYGIKWKRPTELLSNPQFIVDGATRTDICQGALGDCWLLAAIASLTLNDTLLHRVVPHGQSFQNGYAGIFHFQLWQFGEWVDVVVDDLLPIKDGKLVFVHSAEGNEFWSALLEKAYAKVNGSYEALSGGSTSEGFEDFTGGVTEWYELRKAPSDLYQIILKALERGSLLGCSIDISSVLDMEAITFKKLVKGHAYSVTGAKQVNYRGQVVSLIRMRNPWGEVEWTGAWSDSSSEWNNVDPYERDQLRVKMEDGEFWMSFRDFMREFTRLEICNLTPDALKSRTIRKWNTTLYEGTWRRGSTAGGCRNYPATFWVNPQFKIRLDETDDPDDYGDRESGCSFVLALMQKHRRRERRFGRDMETIGFAVYEVPPELVGQPAVHLKRDFFLANASRARSEQFINLREVSTRFRLPPGEYVVVPSTFEPNKEGDFVLRFFSEKSAGTVELDDQIQANLPDEQVLSEEEIDENFKALFRQLAGEDMEISVKELRTILNRIISKHKDLRTKGFSLESCRSMVNLMDRDGNGKLGLVEFNILWNRIRNYLSIFRKFDLDKSGSMSAYEMRMAIESAGFKLNKKLYELIITRYSEPDLAVDFDNFVCCLVRLETMFRFFKTLDTDLDGVVTFDLFKWLQLTMFA
chain 2: MFLVNSFLKGGGGGGGGGGGLGGGLGNVLGGLISGAGGGGGGGGGGGGGGGGGGGGTAMRILGGVISAISEAAAQYNPEPPPPRTHYSNIEANESEEVRQFRRLFAQLAGDDMEVSATELMNILNKVVTRHPDLKTDGFGIDTCRSMVAVMDSDTTGKLGFEEFKYLWNNIKRWQAIYKQFDTDRSGTICSSELPGAFEAAGFHLNEHLYNMIIRRYSDESGNMDFDNFISCLVRLDAMFRAFKSLDKDGTGQIQVNIQEWLQLTMYS
Km (protease assay, fluorescence quench) [3]: Km was 0.17±0.01 µM

Source: patent publication US20050106655A1
